Data as given in patent publication US20250122298A1 (OSSIANIX, published 2025).

Assays:
[1] = target: T1, recombinant cynomolgus TfR-1 (cynomolgus, UniProt H9EXL1 89-760 (rhesus entry)); assay: SPR Biacore T200, multi-cycle kinetics, 1:1 model
T1 construct: also called cTfR-1; cTfR1

recombinant human TfR-1 [2] = target: T2, recombinant human TfR-1 (human, UniProt P02786 89-760, limits assumed); assay: ELISA, plate-coated recombinant TfR-1, anti-hFc HRP detection
T2 construct: also called hTfR-1; hTfR1
T2 sequence (P02786 89-760 limits assumed): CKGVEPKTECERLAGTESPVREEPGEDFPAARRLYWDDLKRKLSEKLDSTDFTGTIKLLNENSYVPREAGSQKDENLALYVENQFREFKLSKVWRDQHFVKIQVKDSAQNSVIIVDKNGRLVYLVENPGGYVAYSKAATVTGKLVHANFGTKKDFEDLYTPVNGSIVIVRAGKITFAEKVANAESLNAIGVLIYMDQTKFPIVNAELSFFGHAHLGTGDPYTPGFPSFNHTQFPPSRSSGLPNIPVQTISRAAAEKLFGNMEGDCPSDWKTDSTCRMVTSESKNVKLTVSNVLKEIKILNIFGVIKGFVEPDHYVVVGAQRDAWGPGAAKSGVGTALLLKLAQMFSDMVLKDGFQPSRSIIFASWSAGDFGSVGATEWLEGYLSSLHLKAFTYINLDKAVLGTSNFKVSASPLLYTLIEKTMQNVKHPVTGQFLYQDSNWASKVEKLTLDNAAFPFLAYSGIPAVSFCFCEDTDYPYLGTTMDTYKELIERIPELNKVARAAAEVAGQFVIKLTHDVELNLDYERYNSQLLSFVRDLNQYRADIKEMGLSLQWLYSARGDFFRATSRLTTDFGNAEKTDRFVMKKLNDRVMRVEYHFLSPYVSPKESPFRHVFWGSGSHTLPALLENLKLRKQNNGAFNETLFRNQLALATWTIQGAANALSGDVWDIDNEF
Description: (§1) TfR-1 binding ELISA. Nunc MaxiSorp plates were coated with 100 μl of 1 μg/ml of in-house purified recombinant human, mouse, rat and cynomolgus TfR-1 and incubated at 4° C. overnight. Plates were incubated with blocking buffer (2.5% non-fat dry milk in PBST) for 1 h at RT. Serially-diluted TXP1 was mixed with non-fat dry milk in PBST to a final concentration of 2.5% and incubated for 30 min. Blocked TXP1 solutions (100 μl) were transferred to the blocked plates and incubated for 1 hr. Plates were washed with PBST and incubated with anti-hFc HRP-conjugated antibody diluted 1:5,000 (Sigma) in blocking buffer for 30 min. Plates were washed and developed with SureBlue™ TMB substrate, the reaction stopped with 1% HCl and absorbance measured at 450 nm.

[3] = target: T1, recombinant cynomolgus TfR-1; assay: as above
Description: as §1

recombinant mouse TfR-1 = target: T3, recombinant mouse TfR-1 (mouse, UniProt Q62351 89-763, limits assumed); assay: as above
T3 construct: also called mTfR-1
T3 sequence (Q62351 89-763 limits assumed): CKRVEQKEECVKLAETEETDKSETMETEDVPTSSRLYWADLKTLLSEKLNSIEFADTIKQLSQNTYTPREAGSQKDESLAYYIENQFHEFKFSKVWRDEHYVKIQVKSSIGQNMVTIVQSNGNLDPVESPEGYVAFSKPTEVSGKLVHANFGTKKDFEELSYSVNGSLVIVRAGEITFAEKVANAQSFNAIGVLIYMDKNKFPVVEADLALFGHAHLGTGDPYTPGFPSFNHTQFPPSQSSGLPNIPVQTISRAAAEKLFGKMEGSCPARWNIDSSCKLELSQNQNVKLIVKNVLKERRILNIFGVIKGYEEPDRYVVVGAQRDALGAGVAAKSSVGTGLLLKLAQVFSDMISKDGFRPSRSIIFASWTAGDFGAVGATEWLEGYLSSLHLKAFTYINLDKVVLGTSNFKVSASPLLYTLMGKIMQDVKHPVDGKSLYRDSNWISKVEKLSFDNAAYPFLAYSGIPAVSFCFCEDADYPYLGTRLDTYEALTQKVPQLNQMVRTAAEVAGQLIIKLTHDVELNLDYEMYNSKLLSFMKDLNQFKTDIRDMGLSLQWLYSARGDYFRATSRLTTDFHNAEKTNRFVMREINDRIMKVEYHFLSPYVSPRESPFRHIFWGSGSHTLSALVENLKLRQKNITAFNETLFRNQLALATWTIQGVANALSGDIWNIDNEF
Description: as §1

recombinant rat TfR-1 = target: T4, recombinant rat TfR-1 (rat, UniProt Q99376 87-761, limits assumed); assay: as above
T4 construct: also called rTfR-1
T4 sequence (Q99376 87-761 limits assumed): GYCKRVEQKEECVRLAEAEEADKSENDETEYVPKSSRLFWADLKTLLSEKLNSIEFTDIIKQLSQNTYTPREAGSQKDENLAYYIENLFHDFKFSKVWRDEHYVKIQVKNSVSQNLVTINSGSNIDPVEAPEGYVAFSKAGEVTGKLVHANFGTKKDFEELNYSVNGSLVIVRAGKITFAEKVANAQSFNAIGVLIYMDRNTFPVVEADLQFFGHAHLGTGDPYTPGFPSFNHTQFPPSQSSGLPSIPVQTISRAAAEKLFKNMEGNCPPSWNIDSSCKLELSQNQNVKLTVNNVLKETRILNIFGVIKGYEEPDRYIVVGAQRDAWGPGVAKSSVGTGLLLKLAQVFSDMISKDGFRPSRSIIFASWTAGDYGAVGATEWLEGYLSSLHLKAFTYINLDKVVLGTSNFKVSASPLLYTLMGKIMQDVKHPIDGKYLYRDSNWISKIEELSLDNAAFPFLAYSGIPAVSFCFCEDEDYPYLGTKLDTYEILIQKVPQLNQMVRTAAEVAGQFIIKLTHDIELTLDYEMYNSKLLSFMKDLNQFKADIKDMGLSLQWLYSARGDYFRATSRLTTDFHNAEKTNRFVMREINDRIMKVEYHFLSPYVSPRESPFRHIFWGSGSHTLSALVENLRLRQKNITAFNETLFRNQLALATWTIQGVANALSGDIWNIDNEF
Description: as §1

[4] = target: T1, recombinant cynomolgus TfR-1; assay: ELISA, plate-coated recombinant cTfR1, anti-hFc HRP detection
Description: (§2) TfR1 ELISA. Nunc MaxiSorp plates were coated with 100 ul of 1 μg/ml of in-house purified recombinant human, cynomolgus TfR1 or HSA and incubated at 4° C. overnight. Plates were incubated with blocking buffer (2.5% non-fat dry milk in PBST) for 1 hr at RT. Serial dilutions of TXP1, TXPID1 or TXP1D4 were mixed with non-fat dry milk in PBST to a final concentration of 2.5% and incubated for 30 min. Blocked VNAR antibody solutions (100 μl) were transferred to the blocked plates and incubated for 1 hr. Plates were washed with PBST and incubated with anti-hFc HRP-conjugated antibody diluted 1:5,000 (Sigma) in blocking buffer for 30 min. Plates were washed and developed with SureBlue TMB substrate. Were indicated the velocity of colorimetric reaction development was measured in the kinetic mode at 370 nm and the maximum peak was used for quantitation (Vmax at 370 nm). Alternatively, the TMB reaction was stopped with 1% HCl and absorbance was measured at 450 nm (OD at 450 nm).

recombinant human TfR-1 [5] = target: T2, recombinant human TfR-1; assay: ELISA, plate-coated recombinant hTfR1, anti-hFc HRP detection
Description: as §2

HSA = target: T5, HSA (human, UniProt P02768 25-609); assay: ELISA, plate-coated HSA as negative control, anti-hFc HRP detection
T5 construct: also called human serum albumin (negative control)
T5 sequence (P02768 25-609 limits assumed): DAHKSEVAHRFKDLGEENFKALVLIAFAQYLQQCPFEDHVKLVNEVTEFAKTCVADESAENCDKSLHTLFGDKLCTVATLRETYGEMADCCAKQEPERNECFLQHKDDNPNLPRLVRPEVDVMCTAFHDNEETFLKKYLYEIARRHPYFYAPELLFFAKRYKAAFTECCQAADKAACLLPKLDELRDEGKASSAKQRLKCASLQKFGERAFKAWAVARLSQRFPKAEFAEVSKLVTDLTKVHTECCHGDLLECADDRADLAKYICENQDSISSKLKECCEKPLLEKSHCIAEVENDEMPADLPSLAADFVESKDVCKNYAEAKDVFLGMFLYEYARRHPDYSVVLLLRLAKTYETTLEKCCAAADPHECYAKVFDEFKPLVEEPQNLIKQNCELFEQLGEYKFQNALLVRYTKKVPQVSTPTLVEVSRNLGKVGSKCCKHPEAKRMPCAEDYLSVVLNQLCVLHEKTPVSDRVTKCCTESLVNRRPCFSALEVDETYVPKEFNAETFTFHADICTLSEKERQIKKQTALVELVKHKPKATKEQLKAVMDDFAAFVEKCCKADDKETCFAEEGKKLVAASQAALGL

recombinant human TfR-1 [6] = target: T2, recombinant human TfR-1; assay: SPR Biacore T200, His-tagged TfR1 captured by anti-His, multi-cycle kinetics, 1:1 model
Description: Binding kinetics. Binding kinetics of TXP1, TXP1D1 and TXP1D4 were determined by surface plasmon resonance (SPR) using a Biacore T200 (GE Healthcare). A His-capture kit (GE Healthcare) was used to immobilize anti-His antibodies on CM5 chips (as recommended by the manufacturer). His-tagged recombinant hTfR1 in 0.1% BSA in HBS-EP+ buffer (GE Healthcare) was captured at flow rate 10 μl/min. Analyte binding was measured using the multi-cycle kinetic SPR method. Starting analyte concentrations at 400 nM and serially diluted in 1:4 in seven steps. Association and dissociation were measured for 360s and 1500s respectively, with flow rate at 30 μl/min. The chips were regenerated in 10 mM Glycine-HCl, pH 1.5. Sensorgrams were fitted using 1:1 binding model and kinetic constants determined using Biacore T200 Evaluation software (Cytiva).

[7] = target: T6, cell surface human TfR1 on hCMEC/D3 and SH-SY5Y cells (human, UniProt P02786 1-760); assay: flow cytometry on hCMEC/D3 cells on ice, binding to cell surface TfR1, anti-hFc Alexa647
T6 construct: whole, on cells; Endogenous receptor on the cell lines; also called cell surface TfR1; cell-surface hTfR1
T6 sequence (P02786 whole entry): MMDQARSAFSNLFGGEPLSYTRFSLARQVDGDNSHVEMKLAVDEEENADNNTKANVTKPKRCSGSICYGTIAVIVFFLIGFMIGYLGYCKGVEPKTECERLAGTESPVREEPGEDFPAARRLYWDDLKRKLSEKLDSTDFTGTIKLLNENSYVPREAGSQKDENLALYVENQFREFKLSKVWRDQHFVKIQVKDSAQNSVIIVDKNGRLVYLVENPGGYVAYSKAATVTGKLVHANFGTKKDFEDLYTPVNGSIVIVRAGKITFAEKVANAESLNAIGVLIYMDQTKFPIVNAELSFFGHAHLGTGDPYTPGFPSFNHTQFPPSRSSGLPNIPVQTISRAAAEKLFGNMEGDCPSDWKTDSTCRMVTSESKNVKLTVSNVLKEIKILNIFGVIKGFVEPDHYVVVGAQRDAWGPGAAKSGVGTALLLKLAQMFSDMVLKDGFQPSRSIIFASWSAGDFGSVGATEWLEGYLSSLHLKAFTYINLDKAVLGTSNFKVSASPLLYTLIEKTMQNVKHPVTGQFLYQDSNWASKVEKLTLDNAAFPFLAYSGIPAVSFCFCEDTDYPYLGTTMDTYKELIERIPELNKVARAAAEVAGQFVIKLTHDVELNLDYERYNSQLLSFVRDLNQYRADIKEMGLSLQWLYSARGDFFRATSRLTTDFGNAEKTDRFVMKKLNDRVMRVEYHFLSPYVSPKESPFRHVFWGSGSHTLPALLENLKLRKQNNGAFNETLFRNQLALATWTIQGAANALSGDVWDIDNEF
Description: Functional activity of the fully deimmunized variants was assessed using the hCMEC/D3 human endothelial cell line and the SY-SH5Y human neuronal cell line. Binding to hCMEC/D3 cells was assessed by incubation with serial antibody dilutions for 1h on ice to avoid internalization. The cells were fixed and binding to cell surface TfR1 was measured by flow cytometry. […] Internalization via cell-surface hTfR1 was assessed using the hCMEC/D3 and SY-SH5Y cell lines by incubation with the antibodies for 1 hour at 37° C.
Flow cytometry. hCMEC/D3 cells were seeded onto V-bottom 96-well plates at a density of 1×10⁴ cells/well. All incubations were carried out on ice to prevent internalization. After blocking in PBS containing 10% BSA (FACS buffer), cells were incubated with serial dilutions of TXP1. Cells were stained with propidium iodine (PI; Biolegend) for 20 min, followed by anti-hFc conjugated to Alexa647 diluted 1:300 (Jackson ImmunoResearch) for 30 min. After fixation in 4% PFA for 15 min, the cells were analyzed on a CytoFlex flow cytometer (Beckman Coulter). Gating of cells stained with secondary antibody alone was used to set the negative threshold for and the fluorescence intensity of approximately 1000 cells per condition was measured. EC50 values were calculated using a four parametric non-linear regression model.

recombinant human TfR-1 [8] = target: T2, recombinant human TfR-1; assay: SPR Biacore T200, His-tagged TfR-1 captured by anti-His, single cycle kinetics, 1:1 model
Description: (§3) Binding kinetics. Binding kinetics of TXP1 and A06 VNAR antibodies were determined by surface plasmon resonance (SPR) using a Biacore T200 (GE Healthcare). A His-capture kit (GE Healthcare) was used to immobilize anti-His antibodies on CM5 chips (as recommended by the manufacturer). His-tagged recombinant cynomolgus and human TfR-1 in 0.1% BSA in HBS-EP+ buffer (GE Healthcare) was captured at flow rate 10 μl/min. Analyte binding was measured using the single cycle kinetic SPR method on a Biacore T200. Analytes were injected at increasing concentrations (0.98, 3.9, 15.6, 62.5 and 250 nM) in HBS-EP+ at flow rate 30 μl/min. A flow cell without TfR-1 captured served as a reference. The chips were regenerated in 10 mM glycine-HCl, pH 1.5. Sensorgrams were fitted using 1:1 binding model and kinetic constants determined using Biacore T200 Evaluation software (GE Healthcare). Association and dissociation were measured for 360s and 1500s respectively, with flow rate at […].

[9] = target: T1, recombinant cynomolgus TfR-1; assay: as above
Description: as §3

T1 sequence (chain, as listed by the source): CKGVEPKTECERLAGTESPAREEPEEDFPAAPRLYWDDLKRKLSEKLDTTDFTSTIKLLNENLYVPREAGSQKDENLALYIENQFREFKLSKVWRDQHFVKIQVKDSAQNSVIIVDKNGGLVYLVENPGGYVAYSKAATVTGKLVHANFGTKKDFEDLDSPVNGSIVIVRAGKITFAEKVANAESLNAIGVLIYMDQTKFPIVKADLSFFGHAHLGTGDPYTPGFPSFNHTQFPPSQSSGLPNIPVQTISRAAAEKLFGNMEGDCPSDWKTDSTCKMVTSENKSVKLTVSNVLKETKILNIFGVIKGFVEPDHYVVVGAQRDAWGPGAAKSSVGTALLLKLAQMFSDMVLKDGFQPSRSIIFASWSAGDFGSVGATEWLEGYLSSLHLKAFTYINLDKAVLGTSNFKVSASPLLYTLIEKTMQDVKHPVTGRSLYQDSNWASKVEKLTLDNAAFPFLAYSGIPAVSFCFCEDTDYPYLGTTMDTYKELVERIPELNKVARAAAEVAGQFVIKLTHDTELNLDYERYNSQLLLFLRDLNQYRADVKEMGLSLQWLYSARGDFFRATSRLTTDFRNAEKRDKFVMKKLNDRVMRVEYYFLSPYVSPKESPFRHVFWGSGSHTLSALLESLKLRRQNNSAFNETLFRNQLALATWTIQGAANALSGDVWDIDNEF

- Kd [1]: 1.8 nM
- koff [1]: 9.6e-05 s⁻¹
- kon [1]: 53000 M⁻¹ s⁻¹
- EC50 (recombinant human TfR-1 [2]): 1.5 nM
- EC50 [3]: 1.6 nM
- binding result (recombinant mouse TfR-1): no binding
- binding result (recombinant rat TfR-1): no binding
- EC50 [4]: 1.4 nM
- EC50 (recombinant human TfR-1 [5]): 1.9 nM
- binding result (HSA): no binding
- Kd (recombinant human TfR-1 [6]): 5.1 nM
- koff (recombinant human TfR-1 [6]): 0.00027 s⁻¹
- kon (recombinant human TfR-1 [6]): 54000 M⁻¹ s⁻¹
- EC50 [7]: 2.2 nM
- Kd (recombinant human TfR-1 [8]): 1.03 nM
- koff (recombinant human TfR-1 [8]): 0.000134 s⁻¹
- kon (recombinant human TfR-1 [8]): 129000 M⁻¹ s⁻¹
- Kd [9]: 3.14 nM
- koff [9]: 0.000365 s⁻¹
- kon [9]: 116000 M⁻¹ s⁻¹
B1: TXP1 (Fc fusion)
chain: ARVDQTPQTITKETGESLTINCVLRDSNCALSSTYWYRKKSGSTNEENISKGGRYVETVNSGSKSFSLKINDLTVEDSGTYRCNVVGTWCMSWRDVYGGGTAVTVNA
notes: Bivalent VNAR-hFc; VNAR at the N-terminus of hFc IgG1; also called VNAR-hFc named TXP1; parental TXP1; not shown: human IgG1 Fc domain (hFc) with attenuated effector function mutations E233P/L234V/L235A/AG236 (deletion of G236)+A327G/
